Test results published in the nanobody polyreactivity screen of Harvey et al. (2022).

Assay: yeast display, Sf9 membrane polyspecificity reagent, FACS + sequencing; frameworks hold sequencing errors
Summary of the method: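 Using colony PCR, genes from sorted yeast display clones were amplified, then sequenced on MiSeq at 2 × 250 and filtered by CDR length. The clones had been stained with 10% biotinylated, detergent-solubilized Sf9 membrane reagent for 1 hour at 4 °C and sorted by FACS into low and high (top ~1%) gates on anti-HA and streptavidin fluorescence. Polyreactivity labels come from the gate of origin.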

| Sequence | polyreactivity (PSR sort gate) |
| --- | --- |
| QVQLVESGGGLVQAGGSLRLSCAASGRTFYHNAMGWYRQAPGKERELVATINSGGSTYADSVKGRFTISRDNAKNTVYLQMISLKPEDTAVYYCASTFWSRSRFYYRYDYWGQGTQVTVSS | high polyreactivity |
| QVQLVESGGGLVQAGGSLRLSCAASGRTFYHYAMGWYRQAPGKERELVAAITYRGGNTYYADSVKGRFTISRDNAKNTVYLQMNSLKPEDTAVYFCAKQGVRRHYGYDYWGQGTQVTVSS | high polyreactivity |
| QVQLVESGGGLVQAGGSLRLSCAASGRTFYINAMGWYRQAPGKERELVATISRSGGDTYYADSVKGRFTISRDNAKNTVYIEMTSLKPEDTAVYFCNARQYYYRSGAYASRYLYNYWGQGTQVTVSS | high polyreactivity |
| QVQLVESGGGLVQAGGSLRLSCAASGRTFYIYAMGWYRQAPGKERELVAAITSGTSSTYYADSVKGRFTISRDNAKNTVYLQMNSLKPEDTAVYYCAASSTGYGGSTYYYWGQGTQVTVSS | low polyreactivity |
| QVQLVESGGGLVQAGGSLRLSCAASGRTFYIYAMGWYRQAPGKERELVAAITYSSGTTYYADSVKGRFTISRDNAKNTVYLQMNSLKPEDTAVYYCAADVGFNQFDYWGQGTQVTVSS | low polyreactivity |
| QVQLVESGGGLVQAGGSLRLSCAASGRTFYKYAMGWYIQAPGKERELVAAISSRGGRTYYADSVKGRFTISRDNAKNTVYLQMNSLKPEDTAVYYCAADYAVEWWGNWYEYWGQGTQVTVSS | high polyreactivity |
| QVQLVESGGGLVQAGGSLRLSCAASGRTFYKYAMGWYRQAPGKERELVAAINRIGGRTYYADSVKGRFTISRDNAKNTVYLQMNSLKPEDTAVYYCAAEFVGDNRHGYWGQGTQVTVSS | high polyreactivity |
| QVQLVESGGGLVQAGGSLRLSCAASGRTFYLNVMGWYRQAPGKEREFVASISTTGGSTYYADSVKGRFTISRDNAKNTVYLQMNSLKPDDTAVYYCAASLRYWARNYWGQGTQVTVSS | high polyreactivity |
| QVQLVESGGGLVQAGGSLRLSCAASGRTFYLYAMGWYRQAPGKERELVAAITWRGGSTYYADSVKGRFTISRDNAKNTVYLQMNSLKPEDTAVYYCSAVTFFYYSAVRYEYYYWGQGTQVTVSS | high polyreactivity |
| QVQLVESGGGLVQAGGSLRLSCAASGRTFYNAMGWYRQAPVKEMELVAAITTGGGTKYADSVKGRFTISRDNAKNTFYLQMNSLKPEDTAVYYCNTDEWYHFYHGAHKYDYWGQGTQVTLSS | low polyreactivity |
| QVQLVESGGGLVQAGGSLRLSCAASGRTFYNYAMGWYRQAPGKEREFVAAITFRTSSTYYADSVKGRFTISRDNAKNTVYLQMNSLKQEDTAVYYCNADRYWGYDYWGQGTQVTVSS | high polyreactivity |
| QVQLVESGGGLVQAGGSLRLSCAASGRTFYNYAMGWYRQAPGKERELVAAISGSGGSTYYADSVKGRFTISRDNAKNTVYLQMNSLKPEDTAVYYCAARKDSYYYRSYDSWGQGTQVTVSS | high polyreactivity |
| QVQLVESGGGLVQAGGSLRLSCAASGRTFYNYAMGWYRQAPGKERELVATINWSGGRTYYADSVKGRFTISRDNAKNTVYLQMNSLKAEDTAVYYCAKTWLYQSNEYGYWGQGTQVTVSS | low polyreactivity |
| QVQLVESGGGLVQAGGSLRLSCAASGRTFYPNAMGWYRQAPGKERELVARITTRGGSTYYADSVKGRFTISRDNAKNTVYLQMNSLKPEATAVYYCAVDYNSDWAYDYWGQGTQVTVSS | high polyreactivity |
| QVQLVESGGGLVQAGGSLRLSCAASGRTFYPYAMGWYRKAPVKERDLVAAISWSGGSTRYADSVKGRFTISRDNAKNTVDLQMNSLKPEDTAVYYCNTQYSWYYPADYDYWGQGTQVTVSS | low polyreactivity |
| QVQLVESGGGLVQAGGSLRLSCAASGRTFYPYAMGWYRQAPGKERELVAAISSGGSTTYADSVKGRFTISRDNAKNTVYLQMNSLKPEDTAVYYCAVYGTERLAFDYWGQGTQVTVSS | low polyreactivity |
| QVQLVESGGGLVQAGGSLRLSCAASGRTFYPYAMGWYRQAPGKERELVASINWSGASTYYADSVKGRFTISRDNAKNTVYLQMNSLKPEDTAVYYCAAYITYLSSRFWYGYWGQGTQVTVSS | high polyreactivity |
| QVQLVESGGGLVQAGGSLRLSCAASGRTFYPYDMGWYRQAPGKERELDAAISRSGGSTYYADSVKGRFTISRDNAKNSVYLQMNSLKPEDTAVYYCAAVYYSYSFVDHYDYWGQGTQVTVSS | low polyreactivity |
| QVQLVESGGGLVQAGGSLRLSCAASGRTFYPYVMGWYRQSPGKERELVASISWSGGSTYYADSVKGRFTFSRDNAKNSVYLQMNSLKPEDTAVYYCAALWPYGYWGQGTQVTVSS | low polyreactivity |
| QVQLVESGGGLVQAGGSLRLSCAASGRTFYQYAMGWYRQAPGKERELVAAISRSGTSTYYADSVKGRFTISRDNAKITVYLQMNSLKPEDTAVYYCATSTGRGYSWGQGTQVTVSS | high polyreactivity |
| QVQLVESGGGLVQAGGSLRLSCAASGRTFYQYAMGWYRQAPGKERELVAAISWSDGSTSYADSVKGRFTISRDNAKNTVYLQMNSLKQEDTAVYYCAKDWTGTKAIEYDYWGQGTQVTVSS | low polyreactivity |
| QVQLVESGGGLVQAGGSLRLSCAASGRTFYQYAMGWYRQAPGKERELVAAITTSGGSTYYADSVKGRFTISRDNAKNTVYLQMNSLKPEDTAVYYCAAPYTGYRERGSYKSDYWGQGTQVTVSS | low polyreactivity |

| Sequence | polyreactivity (PSR sort gate) |
| --- | --- |
| QVQLVESGGGLVQAGGSLRLSCAASGRTFYQYTMGWYRQAPGKERELVATISDSTNYADSVKGRFTISRDNAKNTVYLQMNSLKPEDTAVYYCNARVRGLGKYESWGQGTQVTVSS | low polyreactivity |
| QVQLVESGGGLVQAGGSLRLSCAASGRTFYRNAMGWSRQAPGKERELVAAISYRGGRTYYADSVKGRFTISRDNAKNTVYLQMNSLKPEDTAVYYCAADLRTRVPYDYWGQGTQVTVSS | high polyreactivity |
| QVQLVESGGGLVQAGGSLRLSCAASGRTFYRNAMGWYRQAPGKERELVAAIRTRTGSTYYADSVKGRFTISRDNAKNTVYLQRNSLKPEDTAVYYCNASPYVNGRYGSWGQGTQVTVSS | high polyreactivity |
| QVQLVESGGGLVQAGGSLRLSCAASGRTFYRNAMGWYRQAPGKERELVAAISGSGVRTYYADSVKGRFTISRDNAKNTVYLQMNSLKPEDTAVYYCARSVTWFRGRFSPDYGSWGQGTQVTVSS | high polyreactivity |
| QVQLVESGGGLVQAGGSLRLSCAASGRTFYRNAMGWYRQAPGKERELVAAISRSGGRTYYADSVKGRFTISRDNAKNTVYLHMNSLKPEDTAVYYCNAQPTLAVADYDYWGQGTQVTVSS | high polyreactivity |
| QVQLVESGGGLVQAGGSLRLSCAASGRTFYRNAMGWYRQAPGKERELVAAISRSGGRTYYADSVKGRFTISRDNAKNTVYLQMNSLKPEDTAVYYCNAQPTLAVADYDYWGQGTQVTVSS | high polyreactivity |
| QVQLVESGGGLVQAGGSLRLSCAASGRTFYRNAMGWYRQAPGKERELVAAISWRGGSTFYADSVKGRFTISRDNAKNTVYLQMNSLKPEDTAVYYCNAGSNSFSRVEYWGQGTQVTVSS | low polyreactivity |
| QVQLVESGGGLVQAGGSLRLSCAASGRTFYRNAMGWYRQAPGKERELVAAITSGGSTYYADSVKGRFTISRDNAKNTVYLQINSLKPEDTAVYYCAKRKGWVPSRSWTPAFWGQGTQVTVSS | low polyreactivity |
| QVQLVESGGGLVQAGGSLRLSCAASGRTFYRYAMGWYRQAPGKERELVAAISTRGGTTYYADSVKGRFTISRDNAKNTVYLQMNSLKPEDTAVYYCAADSVYAEDDSWGQGTQVTVSS | low polyreactivity |
| QVQLVESGGGLVQAGGSLRLSCAASGRTFYRYAMGWYRQAPGKERELVAAITTGGGSTYYADSVKGRFTISRDNAKNTVYLQMNSLKPEDTAVYYCNVYSSYTRRTLGDYWGQGTQVTVSS | high polyreactivity |
| QVQLVESGGGLVQAGGSLRLSCAASGRTFYRYAMGWYRQAPGKERELVAAMSRSGTTYYADSVKGRFTISRDNAQNTVYFQMNSLKPEDTALYYCAAKPAARQRGGDYWGQGTQVTVSS | high polyreactivity |
| QVQLVESGGGLVQAGGSLRLSCAASGRTFYRYAMGWYRQAPGKERELVATITLRGGRTYYADSVKGRFTISRDTAKNTVYLQMNSLKPEDTAVYYCAKYHWRLSFSRYPYDYWGQGTQVTVSS | high polyreactivity |
| QVQLVESGGGLVQAGGSLRLSCAASGRTFYRYAMGWYRQAPGKERLVAAITWNGGSTYYADSVKGRFTISRDNAKNTVYLQMNSLNPEDTAVYYCAATFGGVSWRRPHRFDYWGQGTQVTVSS | high polyreactivity |
| QVQLVESGGGLVQAGGSLRLSCAASGRTFYRYSMGWYRQAPAKERELVAAISSSGGRTYYADSVKGRFTISRDNAKNTVYLQMNSLKPEDTAVYYCIKAYYYWYDWGQGTQVTVSS | high polyreactivity |
| QVQLVESGGGLVQAGGSLRLSCAASGRTFYRYTMGWYRQAPAKERELVAAISWSGGSTYYADSVKGRFTISRDNAKNTVYLQMNSLKPEDTAVNYCAKATYWLYVQWYTYGYWGQGTQVTVSS | high polyreactivity |
| QVQLVESGGGLVQAGGSLRLSCAASGRTFYRYTMGWYRQAPGKERELVAGISWRGGTTYYADSVKGRFTISRDNAKNTVYLQMNSLKPEDTAVYYCAAKAGYRYGSLAYYKYDYWGQGTQVTVSS | high polyreactivity |
| QVQLVESGGGLVQAGGSLRLSCAASGRTFYSNAMGWYRQAPGKERELVAAISSSGSSTSYADSVKGRFTMSRDNAKNTVYLQMNSLKPEDTAVYYCAVRTKRRANRDYWGQGTQVTVSS | high polyreactivity |
| QVQLVESGGGLVQAGGSLRLSCAASGRTFYSNSMGWYRQAPGKERELVATISWRGGSTYYADSVKGRFTISRDNAKNTVYFQMHSLKPEDTAVYYCAAGYYPYWGQGTQVTVSS | low polyreactivity |
| QVQLVESGGGLVQAGGSLRLSCAASGRTFYSNTMGWYRQAPGKEREFVAAIPSIVGSTYYADSVKGRFTISRDNAKNTVYLQMNSLKPEDTAVYYCATRYVVIEYDYWGQGTQVTVSS | low polyreactivity |
| QVQLVESGGGLVQAGGSLRLSCAASGRTFYSYAMGWYRQAPGKERELVAAISGRGGRTYYADSVKGRFTISRDNAKNTVYLQMNSLKPEDTAVYYCAKGGYAIRYYGFDYWGQGTQVTVSS | high polyreactivity |
| QVQLVESGGGLVQAGGSLRLSCAASGRTFYSYAMGWYRQAPGKERELVAAISKRGTSTYYADSVKGRFTISRDNAKNTVYLQMNSLKPEDTAVYYCAAAYRGREVEYNSWGQGTQVTVSS | high polyreactivity |
